# Measured values from paper PMC3020774 (The Journal of Biological Chemistry, 2010).
# T1: ZHD5-MBP (UniProt Q9FRL5 1-309)
# T1 sequence: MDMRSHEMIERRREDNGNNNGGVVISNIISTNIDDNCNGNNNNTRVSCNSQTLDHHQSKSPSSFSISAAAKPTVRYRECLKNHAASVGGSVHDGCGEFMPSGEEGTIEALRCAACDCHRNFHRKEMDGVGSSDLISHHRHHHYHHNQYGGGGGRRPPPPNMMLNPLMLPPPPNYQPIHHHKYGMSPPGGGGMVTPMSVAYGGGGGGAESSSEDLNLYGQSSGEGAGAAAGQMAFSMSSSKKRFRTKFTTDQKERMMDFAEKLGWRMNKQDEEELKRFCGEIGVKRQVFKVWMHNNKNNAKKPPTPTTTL
# B1: recombinant MIF1-GST fusion protein (natural protein)
# chain: MMKKRQMVIKQRSRNSNTSSSWTTTSSSSSSSEISNVRYVECQKNHAANIGGYAVDGCREFMAAGVEGTVDALRCAACGCHRNFHRKEVDTEVVCEYSPPNA
# B2: ATTA EMSA probe (dsDNA)
# DNA 1: CAGTGTCTTGTAATTAAAAA
# DNA 2: TTTTTAATTACAAGACACTG
# B3: recombinant ZHD5-MBP fusion protein (natural protein)
# chain: T1 sequence
# Key:
# [1] = biological target: B3; experiment: native gel or EMSA
# [2] = biological target: T1, ZHD5-MBP; experiment: EMSA
# [3] = biological target: the molecule itself; experiment: native gel or EMSA
binder,measurement,setting,value
B1,binding result,[1],binds
B2,binding result,[2],binds
B3,binding result,[3],binds
